# Test results from patent US5985836A, “Alpha-1 proteinase inhibitor binding peptides” (Bayer Corporation, priority 1998, dated 1999).
# Ends that are not written are not given here.
# Columns and labels:
# A1PI [1] = molecular target: T1, A1PI (Homo sapiens, UniProt P01009); assay: Purification of A1PI from Effluent II+III on peptide column, A1PI mass balance; format: binding; settings: 1 ml Eff. II+III, 4° C.; for Mass A1PI per Eluate Fraction, 2% Acetic Acid / Mass A1PI per Eluate Fraction, Flowthrough / Mass A1PI per Eluate Fraction, 1M NaCl: * Below detection limit
# T1 construct: Human plasma is currently the only approved source of therapeutic AlPI
# Protocol: (§1) Sequences 1-11 and 15 were assayed with Effluent II+III (Eff. II+III). Eff. II+III is a process intermediate in the Cohn plasma fractionation process. The feed stream contains 20% (by volume) ethanol, 20-25 mg/ml hSA and approximately 1 mg/ml AlPI. The stream also contains other proteins including anti-thrombin III (AT3), immunoglobin G (IgG), immunoglobin A (IgA), apolipoprotein alpha-1 (Apo A-1), transferrin (Trf), haptoglobin (Hpt), and alpha-1 acid glycoprotein (AAG) at concentrations ranging from 0.1-1 mg/ml.
# (§2) The columns were assayed using the same technique as the hSA+AlPI experiments, allowing for a 10 minute residence time followed by a constant flow rate of 865 μl/min with step elutions of 1M NaCl, 3M NaCl, and 2% acetic acid. All experiments were conducted at 4° C. The mass balances for the injection of 1 ml Eff. […] The AlPI was enriched from 3% of the total protein in the feed to upwards of 50% in the acid eluate.
# A1PI [2] = molecular target: T1, A1PI; assay: A1PI binding on peptide-resin column, injection of 1 mg A1PI in equilibration buffer; settings: for % of Total A1PI Eluted by Fraction (Based on Absorbance at 280 nm), 1M NaCl / % of Total A1PI Eluted by Fraction (Based on Absorbance at 280 nm), 2% Acetic Acid / % of Total A1PI Eluted by Fraction (Based on Absorbance at 280 nm), Flowthrough: Trp position mutations, 1 mg A1PI
# Summary of the method: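 Percent of total eluted A1PI per fraction (flowthrough, NaCl steps, 2% acetic acid) determined by A280 integration or immunonephelometry. Columns of peptide-derivatized A-Totda-Toyopearl resin (0.1 mmole/g) received 1 mg A1PI at 4 °C or 20 °C, flow 865 or 523 μl/min.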
# Immunoglobulin A (IgA) = assay: Purification from Effluent II+III, IgA mass balance; format: binding, human; settings: 1 ml Eff. II+III, 4° C.
# Protocol: as §1, §2
# [3] = molecular target: T2, apolipoprotein alpha-1 (Apo A-1) (Homo sapiens, UniProt P02647); assay: Purification from Effluent II+III, Apo A-1 mass balance; format: binding; settings: 1 ml Eff. II+III, 4° C.
# T2 construct: Eff; II+III is a process intermediate in the Cohn plasma fractionation process; tissue Bayer Corporation (Clayton, N.C.); host or cells: plasma fraction: Cohn Effluent II+III
# Protocol: as §1, §2
# A1PI [4] = molecular target: T1, A1PI; assay: A1PI purification from 5 mg hSA + 1 mg A1PI on peptide column, A1PI mass balance; format: binding; settings: A1PI, 5 mg hSA + 1 mg A1PI; for Percent Eluted by Fraction, 1M NaCl / Percent Eluted by Fraction, 2% Ac. Acid / Percent Eluted by Fraction, 3M NaCl / Percent Eluted by Fraction, Flow: relative to total eluted
# Protocol: Confirmatory binding assays were performed in a column chromatographic format on a microbore HPLC using individual peptide sequences synthesized directly onto the Toyopearl 650 M Chelate resin which had been modified with Totda followed by an alanine residue (A-Totda-Toyopearl), at a final substitution density of 0.1 mmole/g resin. The resin was packed into 0.4×5 cm columns (Thomson, Springfield, Va.) and tested on the Michrom HPLC system (Michrom BioResources, Auburn, Calif.). The elution program for all trials utilized the following method. The column was pre-equilibrated with equilibration buffer (as above). 1 ml of sample was injected and allowed sufficient time to flowthrough the column using equilibration buffer. The column was then washed with step elutions of 1M NaCl and 3M NaCl in equilibration buffer. The column was exposed to equilibration buffer with 0.1M NaCl. Any remaining protein was eluted with elution buffer (2% by volume glacial acetic acid in water).
# A Gilson FC204 fraction collector at the HPLC outlet collected individual eluates for further analysis. Fractions collected from the 2% acetic acid eluates were neutralized with 2M Tris, pH 10.5 to bring the pH to neutrality. The protein samples were reconstituted in equilibration buffer unless otherwise stated. The samples were analyzed by the integration of the absorbance at 280 nm or by immunonephelometry. The specific method of determination is presented for each figure.
# Columns were assayed with a mixture of 5 mg human serum albumin (hSA)+1 mg AlPI at 4° C. (Table 4, Seq. ID 1-11, 15, 17) and 20° C. (Table 5, Seq. ID 1-10, 13, 15, 17). The chromatography method was modified to provide for a 10 minute residence time of sample in the column by decreasing the flow to 17 μl/min (10 cm/hr) upon injection. Following the incubation, the flow was set at 865 μl/min (413 cm/hr) for the step elutions of 1M NaCl, 3M NaCl, and 2% acetic acid. The mass balances presented are based upon immunonephelometry. The Percent Eluted value is protein-specific and based on the amount of the protein eluted in a […]
# [5] = * as in Tables 4, 5 (below detection limit)
# [6] = A1PI, * as in Tables 4, 5 (below detection limit)
# [7] = 1 mg A1PI in equilibration buffer, 4° C.
# [8] = 1 mg A1PI in equilibration buffer, 20° C.
# [9] = 20° C., * Below detection limit
# T2 sequence (P02647 19-267): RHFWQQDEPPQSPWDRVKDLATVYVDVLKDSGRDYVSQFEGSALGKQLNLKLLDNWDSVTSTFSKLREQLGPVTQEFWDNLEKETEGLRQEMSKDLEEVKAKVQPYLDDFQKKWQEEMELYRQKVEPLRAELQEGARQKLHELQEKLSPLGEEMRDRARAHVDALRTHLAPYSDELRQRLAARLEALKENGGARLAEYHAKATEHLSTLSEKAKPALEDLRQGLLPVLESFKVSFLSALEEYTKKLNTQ
# T1 sequence (P01009 25-418): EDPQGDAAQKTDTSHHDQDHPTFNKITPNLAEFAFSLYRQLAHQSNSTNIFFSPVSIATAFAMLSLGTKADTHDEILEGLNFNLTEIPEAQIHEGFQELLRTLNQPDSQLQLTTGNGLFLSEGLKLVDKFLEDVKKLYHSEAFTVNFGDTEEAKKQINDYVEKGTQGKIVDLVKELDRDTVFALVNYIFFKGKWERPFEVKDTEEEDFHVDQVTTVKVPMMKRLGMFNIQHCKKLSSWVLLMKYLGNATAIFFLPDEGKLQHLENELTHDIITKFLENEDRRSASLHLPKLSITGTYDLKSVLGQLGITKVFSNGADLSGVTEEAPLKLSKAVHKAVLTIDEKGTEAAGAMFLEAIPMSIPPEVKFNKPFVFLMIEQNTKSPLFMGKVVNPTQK
substance,measurement,setting,value
V I N L V R: VIWLVR with Trp at position 3 replaced by Asn (VINLVR),"Mass A1PI per Eluate Fraction, 2% Acetic Acid",A1PI [1]; Table 11,0.53 mg
same,"Mass A1PI per Eluate Fraction, Flowthrough",A1PI [1]; Table 11,0.44 mg
same,"Percent Eluted by Fraction, 1M NaCl","A1PI [1]; Table 11, A1PI",0%
same,"Percent Eluted by Fraction, 2% Acetic Acid","A1PI [1]; Table 11, A1PI",55%
same,"Percent Eluted by Fraction, Flowthrough","A1PI [1]; Table 11, A1PI",45%
same,"% of Total A1PI Eluted by Fraction (Based on Absorbance at 280 nm), 1M NaCl",A1PI [2]; 4° C.,8%
same,"% of Total A1PI Eluted by Fraction (Based on Absorbance at 280 nm), 2% Acetic Acid",A1PI [2]; 4° C.,92%
same,"% of Total A1PI Eluted by Fraction (Based on Absorbance at 280 nm), Flowthrough",A1PI [2]; 4° C.,0%
same,"% of Total A1PI Eluted by Fraction (Based on Absorbance at 280 nm), 1M NaCl",A1PI [2]; 20° C.,7%
same,"% of Total A1PI Eluted by Fraction (Based on Absorbance at 280 nm), 2% Acetic Acid",A1PI [2]; 20° C.,93%
same,"% of Total A1PI Eluted by Fraction (Based on Absorbance at 280 nm), Flowthrough",A1PI [2]; 20° C.,0%
V I S L V R: VIWLVR with Trp at position 3 replaced by Ser (VISLVR),"Mass A1PI per Eluate Fraction, 1M NaCl",A1PI [1]; Table 11,0.14 mg
same,"Mass A1PI per Eluate Fraction, 2% Acetic Acid",A1PI [1]; Table 11,0.26 mg
same,"Mass A1PI per Eluate Fraction, Flowthrough",A1PI [1]; Table 11,0.14 mg
same,"Percent Eluted by Fraction, 1M NaCl","A1PI [1]; Table 11, A1PI",26%
same,"Percent Eluted by Fraction, 2% Acetic Acid","A1PI [1]; Table 11, A1PI",49%
same,"Percent Eluted by Fraction, Flowthrough","A1PI [1]; Table 11, A1PI",25%
same,"% of Total A1PI Eluted by Fraction (Based on Absorbance at 280 nm), 1M NaCl",A1PI [2]; 4° C.,100%
same,"% of Total A1PI Eluted by Fraction (Based on Absorbance at 280 nm), 2% Acetic Acid",A1PI [2]; 4° C.,0%
same,"% of Total A1PI Eluted by Fraction (Based on Absorbance at 280 nm), Flowthrough",A1PI [2]; 4° C.,0%
same,"% of Total A1PI Eluted by Fraction (Based on Absorbance at 280 nm), 1M NaCl",A1PI [2]; 20° C.,75%
same,"% of Total A1PI Eluted by Fraction (Based on Absorbance at 280 nm), 2% Acetic Acid",A1PI [2]; 20° C.,14%
same,"% of Total A1PI Eluted by Fraction (Based on Absorbance at 280 nm), Flowthrough",A1PI [2]; 20° C.,11%
V I V L V R: VIWLVR with Trp at position 3 replaced by Val (VIVLVR),"Mass A1PI per Eluate Fraction, 1M NaCl",A1PI [1]; Table 11,0.04 mg
same,"Mass A1PI per Eluate Fraction, 2% Acetic Acid",A1PI [1]; Table 11,0.50 mg
same,"Mass A1PI per Eluate Fraction, Flowthrough",A1PI [1]; Table 11,0.31 mg
same,"Percent Eluted by Fraction, 1M NaCl","A1PI [1]; Table 11, A1PI",4%
same,"Percent Eluted by Fraction, 2% Acetic Acid","A1PI [1]; Table 11, A1PI",59%
same,"Percent Eluted by Fraction, Flowthrough","A1PI [1]; Table 11, A1PI",37%
same,"% of Total A1PI Eluted by Fraction (Based on Absorbance at 280 nm), 1M NaCl",A1PI [2]; 4° C.,5%
same,"% of Total A1PI Eluted by Fraction (Based on Absorbance at 280 nm), 2% Acetic Acid",A1PI [2]; 4° C.,95%
same,"% of Total A1PI Eluted by Fraction (Based on Absorbance at 280 nm), Flowthrough",A1PI [2]; 4° C.,0%
YKFRFW,"Percent Eluted by Fraction, 1M NaCl",Immunoglobulin A (IgA),33%
same,"Percent Eluted by Fraction, 2% Acetic Acid",Immunoglobulin A (IgA),30%
same,"Percent Eluted by Fraction, 3M NaCl",Immunoglobulin A (IgA),0%
same,"Percent Eluted by Fraction, Flow",Immunoglobulin A (IgA),37%
same,"Mass Protein per Eluate Fraction, 1M NaCl",Immunoglobulin A (IgA); [5],0.11 mg
same,"Mass Protein per Eluate Fraction, 2% Acetic Acid",Immunoglobulin A (IgA); [5],0.10 mg
same,"Mass Protein per Eluate Fraction, Flow",Immunoglobulin A (IgA); [5],0.13 mg
same,"Percent Eluted by Fraction, 1M NaCl",A1PI [1]; A1PI,5%
same,"Percent Eluted by Fraction, 2% Acetic Acid",A1PI [1]; A1PI,81%
same,"Percent Eluted by Fraction, 3M NaCl",A1PI [1]; A1PI,0%
same,"Percent Eluted by Fraction, Flow",A1PI [1]; A1PI,14%
same,"Mass Protein per Eluate Fraction, 1M NaCl",A1PI [1]; [6],0.06 mg
same,"Mass Protein per Eluate Fraction, 2% Acetic Acid",A1PI [1]; [6],0.92 mg
same,"Mass Protein per Eluate Fraction, Flow",A1PI [1]; [6],0.16 mg
same,"Percent Eluted by Fraction, 1M NaCl",[3],0%
same,"Percent Eluted by Fraction, 2% Acetic Acid",[3],100%
same,"Percent Eluted by Fraction, 3M NaCl",[3],0%
same,"Percent Eluted by Fraction, Flow",[3],0%
same,"Mass Protein per Eluate Fraction, 2% Acetic Acid",[3]; [5],0.31 mg
same,"Percent A1PI Eluted by Fraction Based on Absorbance at 280 nm, 1M NaCl",A1PI [2]; [7],64%
same,"Percent A1PI Eluted by Fraction Based on Absorbance at 280 nm, 2% Acetic Acid",A1PI [2]; [7],36%
same,"Percent A1PI Eluted by Fraction Based on Absorbance at 280 nm, Flowthrough",A1PI [2]; [7],0%
same,"Percent A1PI Eluted by Fraction, 1M NaCl",A1PI [2]; [8],75%
same,"Percent A1PI Eluted by Fraction, 2% Acetic Acid",A1PI [2]; [8],25%
same,"Percent A1PI Eluted by Fraction, Flowthrough",A1PI [2]; [8],0%
same,"Mass Protein per Eluate Fraction, 1M NaCl","A1PI [4]; 4° C., * Below detection limit",0.28 mg
same,"Mass Protein per Eluate Fraction, 2% Ac. Acid","A1PI [4]; 4° C., * Below detection limit",0.46 mg
same,"Mass Protein per Eluate Fraction, 3M NaCl","A1PI [4]; 4° C., * Below detection limit",0.04 mg
same,"Percent Eluted by Fraction, 1M NaCl",A1PI [4]; 4° C.,36%
same,"Percent Eluted by Fraction, 2% Ac. Acid",A1PI [4]; 4° C.,60%
same,"Percent Eluted by Fraction, 3M NaCl",A1PI [4]; 4° C.,5%
same,"Percent Eluted by Fraction, Flow",A1PI [4]; 4° C.,0%
same,"Mass Protein per Eluate Fraction, 1M NaCl",A1PI [4]; [9],0.16 mg
same,"Mass Protein per Eluate Fraction, 2% Ac. Acid",A1PI [4]; [9],0.30 mg
same,"Mass Protein per Eluate Fraction, Flow",A1PI [4]; [9],0.41 mg
same,"Percent Eluted by Fraction, 1M NaCl",A1PI [4]; 20° C.,18%
same,"Percent Eluted by Fraction, 2% Ac. Acid",A1PI [4]; 20° C.,34%
same,"Percent Eluted by Fraction, 3M NaCl",A1PI [4]; 20° C.,0%
same,"Percent Eluted by Fraction, Flow",A1PI [4]; 20° C.,48%
